assay: yeast display, Sf9 membrane polyspecificity reagent, FACS + sequencing; frameworks hold sequencing errors
Outline: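 Nanobodies came from a synthetic yeast display library in Saccharomyces cerevisiae BJ5465, induced with galactose for 36–48 hours and stained for 1 hour at 4 °C with 10% biotinylated, detergent-solubilized Sf9 membrane reagent. Cells were enriched on streptavidin microbeads and then FACS-sorted, with low and high (top ~1%) gates set on anti-HA fluorescence for expression and streptavidin fluorescence for reagent binding. Each polyreactivity label reflects the gate a clone came from. Genes were amplified by colony PCR, sequenced by MiSeq 2 × 250 and filtered by CDR length.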

Sequence | polyreactivity (PSR sort gate)
QVQLVESGAGLVQAGGSLRLSCAASGRIFTNYVLGWSRQAPGKERELVAAISWTGGRTYYADSVKGRFTISRDYAKNTVYLQMISLKPEDTAVYYCAARARIGTVDYWGQGTQVTVSS | high polyreactivity
QVQLVESGAGLVQAGGSLRLSCAASGRTFGRYAMAWYRQAPGKERELVAAINNGGGTYYADSVKGLFTISRDNAKNTVYLLINSLYPEDTAVYYCAAATRKRVGSYYYWGQGTQVTVSS | high polyreactivity
QVQLVESGAGLVQAGGSLRLSCAASGRTFVDNTMGLYTHAPGKERELVASISSGGSTYYADSVKGRFTISRDNAKNTVYLQMNRLKPEDTAVYDCATGDTLFVFYPDYEYWGQGTQVTVSS | low polyreactivity
QVQLVESGAGLVQAGGSLRLSCAASGRTFWWYAMGWDRQAPGKERELVADINGSGGSTYYADSVKGRFTISRDNAKNTVYLQMICLKPEDTAVYFCAADYYRYIHSVVYSIYDYWGQGTQVTVSS | low polyreactivity
QVQLVESGAGLVQAGGSLRLSCAASGRTIRSYAMGWYRQATGKERELVAAISSGGRTYYADSVKGRFTISRDNAKNNVYLQMNSLKPEDTAVYYCAVRYRVYIFQYGYWGQGTQVTVSS | high polyreactivity
QVQLVESGAGLVQAGGSLRLSCAASGSIFAWYGMGWYRQAPGQERELVAAISTAGSTNYADSVKGRFTISRDNAKNTVYLQMNSLKPEDTAVYYCAKISSWYYPERFDYWGQGTQVTVSS | low polyreactivity
QVQLVESGAGLVQAGGSLRLSCAASGSIFDVNAMGWYRQAPGKERELVAAISQRGTRTYYADSVKGRFTISRDNAKNTVYLQMNRLKPEDTAVYYFNRGGWRKYDSWGQGTQVTVSS | high polyreactivity
QVQLVESGAGLVQAGGSLRLSCAASGSIFLYNDMGWYRQAPGKERELVAAITSDGSTNYADSVKGRFTISRDNAMNTVYLQMNSLKPEDNAVYYCAADALWFYLNWYYGGTAYGYWGQCTQVTVSS | low polyreactivity
QVQLVESGAGLVQAGGSLRLSCAASGSIFRVYAMGWYRQAPGKERELVAAISQSADSTYYADSVKGRFTILRDNAKYTVYLQMNSLKPEDTAVYYCAAEYPYIYRFDYWGQGTQVTVSS | low polyreactivity
QVQLVESGAGLVQAGGSLRLSCAASGSIFYPYAMGWYRQAPGKERELVAAITYSGGSTYADSVKGRFTISRDNAKNTVYLQMNSLKPEDTAVYYCAARYIIHVGSWYDYWGQGTQVTVSS | high polyreactivity
QVQLVESGAGLVQAGGSLRLSCAASGSTFEVYAMGWYRQAPGKVMELVADISHIGGSTYSADSVMGRFTISRDNAKNTVYLQLNSLKPEDTAVYYCNAYTVYAYDYWGQGTQVTVSS | low polyreactivity
QVQLVESGAGLVQAGGSLRLSCAASGSTFWYYAMGLYRQAPGKERELVAAITRDGNTYYADSVKGRFTISRDNAMNSFYLQMNSLKREDTAVYYCAAGFYLLGKYDYWGQGTQVTVSS | high polyreactivity
QVQLVESGAGLVQAGGSLRLSCAASGSTFYPYAMGWYRQAPGKERELVAAISWSGGSTYYADSVKGRFTISRDNAKNTVYLQMNSLKPEDTAVYYCAAEYYYIAYTMDYWGQGTQVTVSS | high polyreactivity
QVQLVESGAGLVQAGGSLRLSCAASGSTLVYNDMGWYRQAPGKDREFVAAIRSNDGSTYYADSVKGRFTISRDNAKNTVYLQMNSLKPEDTAVYYCAKDSRNVYWDYGYWGQGTQVTVSS | low polyreactivity
QVQLVESGAGLVQAGGSLRLSCAPSGRTFDYYAMGWYRQAPGKERELVADITKDGGSTYYADSVKGRFTISRDNAKNSVYLQMISLKPEDTAVYYCAADGPPQYYDPIHYDYWGQGTQVTVSS | low polyreactivity
QVQLVESGAGLVQAGGSLRLSCAPSGRTFWGKVMGWYRQAPGKERELVAAITGRVGSTRYADSVKGRFTISRDNAKNTVFLQMNSLKPEDTAVYYCNADDYELYDYWGQGTQVTVSS | low polyreactivity
QVQLVESGAGLVQAGGSLRLSCAPSGSILVNPIGWYRQAPGKEREFVAAISSGGSTKYADSVKGRFTISRDNAKNTVYLQMNSLKPEATAVYYCNARRRGAGGYDYWGQVTQVTVSS | high polyreactivity
QVQLVESGAGLVQAGGSLRLSWAASGFTFAQNAMGWYTQAPGKERELVAAISRRGGSTYYADSVKGRFTISRDNAKNTVYLQMNSLKPEDTAVYYCDTAGTYTGGEGYWGQGTQVTVSS | high polyreactivity
QVQLVESGAGLVQAGGSLRLSWAASGRIFTGNGMGWYRQAPGKEMELVAGIRNGGGRTYYADSVKGRFTISRDNAKNTVYLKMNSLKPEDTAVYYCAVRIYVRNSPGERLDKYDYWGQGTQVTVSS | high polyreactivity
QVQLVESGAGLVQAGGSLRLSWAPSGITFLYYAMGLYRQAPGTEMELVATISISGGSTYYADSVKGRFTISRDNAKYTVYLQMTSLQPEESAVYYCAADDSVVTYSYDTWLVDYDYWGQATQVTVSS | low polyreactivity
QVQLVESGAGLVQAGGSLRLTCAASGFIFGYNARGWYRPAPGKERELVAAIRYRGVSTYYADSVKGRFTISRDNAKNTFYLQMNSLKPVETAVYYCNARTRVKTTQSYDRNYYYWGQGTQVTVSS | high polyreactivity
QVQLVESGAGLVQAGGSLSLSCAASGSIFGYYTMGWYRQAPGKERELVAAISRSGTSTFYADSVKGRFTISRDNAKNTVYLQMNSLKQEDTAVYYCNAVGSGYRSWYDYWGQGTKVTVSS | high polyreactivity

Sequence | polyreactivity (PSR sort gate)
QVQLVESGAGLVQAGVSLRLSCAASGRTFPYYAMGWYRQAPGKERELVARITYSGGSTYADSVKGRFPISRDNAKNTVYLQMNSLKPEDTAVYFCAAQYYAYLLDGYHRYDYWGLGTQVTVSS | high polyreactivity
QVQLVESGAGLVQAGVSLRLSCAASGRTFRSNAMGWYRQAPGKERELVAAISWSGGSTYYADSVKGRFTISRDNAKNTVYLQMNSLKPEDTAVYDCAVGGSGYGRFGGGYARDYWGQGTLVTVSS | high polyreactivity
QVQLVESGAGLVQARGSLRISCAASGSIFGRYAMGWYRQAPRKERELVASIYSTGGRTYYADSVKGRFTISRDNAKNTVYLQMNSLKPEDTAVYYCAAKFYEYSTAGTQWIRYYYWGQGTQVTVSS | high polyreactivity
QVQLVESGAGLVQARGSLRLSCAASGSIFLSYVMGWYRQAPGKERELVAAISKRGGRTYYADSVKGRFTISRDNAKNTVYLQMNSLKPEDTAVYYCNAVTQRESEEGDYWGQGTQVTVSS | high polyreactivity
QVQLVESGAGLVQARGSLRLSCAASGYTFLGYAMGWYRQAPGKERELVAAINRSGSSTYYADSVKGRFTISRDNAKNTVYLQMNSLKPEDTAVYYCNARSGNRYGPRYDYWGQGTQVTVSS | high polyreactivity
QVQLVESGAGVGQAGGSLRLSCAASGSIFTPYAMGWYRPAPGKERELVAGITSGGNTNYADSVKGRFTISRDNAKNTVYLQMNSLKPEDTAVYYCAARYIYYYAYGYNYWGQGTKVTVSS | high polyreactivity
QVQLVESGAGVVQAGGSLRLSCAASGFTLHSYAMGWYRQAPGKERELVAAITRSGGGTYYADSVKGRFTISRDNAKKTVYLQMNSLKPEDTAVYYCAARFGGQYQHDYWGQGTQVTVSS | high polyreactivity
QVQLVESGARLVQAGGSLRLSCAPSGSIFAYNAMGWYRQAPGKERELVAAITKSGGSTYYADSVKGRFTISRDHAKNTVYLQMNSLKPEDTAVDYCNVVVPHSISSHGDYWGQGTQVTVSS | low polyreactivity
QVQLVESGEGLVQAGGRLRLSCAPSGSTFMTYAMGWYRQAPGKERELVAAIRWSGGGTYYADSVKGRFTISRDNAKNTVYLQMNSLKPEDTAVYYGAADHFNYTPGRDYWGQGTQVTVSS | low polyreactivity
QVQLVESGEGLVQAGGSLSLSCAASGRIFYAYVMGWYRQAPGKERELVAAIDRRSTYYADSVKRRFTISRDNAKNTVFFQMNSLKPEDTAVYYCAARSTYSYYIRGYWGLGTQVTVSS | high polyreactivity
QVQLVESGGALLQAGGSLRLSCAASGFIFRYYAMGWYRQAPGKERELVAAISESGASTYYADSVKGRFTISRDNAKNSVYLQMNSLKPEVTAVYYCAAKPRNSGPYYFYDLNYWGQGTQVTVSS | high polyreactivity
QVQLVESGGALVQAGASLRLSCAASGRTFPLYAMGWYRQAPGKEMELVAAISARGSSTYYADSVKGRFTISRDNAKNTVYLQMNSLKAEDNAVYYCAAKRSYPYGSGYWGQGSQVTVSS | high polyreactivity
QVQLVESGGALVQAGCSLRLSCAASGRTFGRNTMGWYRQAPGKERELVAGISRSAGRTYYADSVKGRFTISRDNAKNNVYLQMNSLKAEDTAVYYCAARYQGNYRTDKYDYWGQGTQVTVSS | high polyreactivity
QVQLVESGGALVQAGGSHRLSCAASGSTFATYAMGWYRQAPGNEREFVAVITRGGRTYYADSVKGRFTISRDNAKITVYLQMNSLKPEDTAVYYCAAGSGNFVTRYRYGYWGQGTQVTVSS | high polyreactivity
QVQLVESGGALVQAGGSIRLSCAASGSTFAYYAMGWYRQATGKERELVAAINWRTYYADSVKGRFTISRDNAKNTVYLQMNSLKPEDSAVYYCAAGYYRNKFYYWGQGTQVTVSS | high polyreactivity
QVQLVESGGALVQAGGSLRISCAASGFTFHKNAMGWYRQAPGKERELVAAITYRGGSTYYADSVKGRFTISRDNAKNTVYLQMNSLKPEDTSVYYCAAELRPYITYDGPRKKFYFWGQGTQVTVSS | high polyreactivity
QVQLVESGGALVQAGGSLRISCAASGFTLQRNTMGWYRQAPGKDREFVAAISVRGGSTYYADSVKGRFTNSRDTAKNTVYLQMNSLKPEDTAVYYCAAVGRPSQYSYPYGYWGQGTQVTVSS | high polyreactivity
QVQLVESGGALVQAGGSLRLSCAASGFIFRYYAMGWYRQAPWKERELVATITGRGGSTYYADSVKGRFTISRDNAMNTVYLQMNSLKPEDTAVYYCAKRGYGRYYAYDYWGQGTQVTVSS | high polyreactivity
QVQLVESGGALVQAGGSLRLSCAASGFIICYYAMGSYRQAPGKDRELVAAITSGTSTSYADSVKGRFTISRDNAKNTVYLQMNSLKQEDTAVYYCGADVVRSNFYGTFLYDYDYWGQGTQVTVSS | low polyreactivity
QVQLVESGGALVQAGGSLRLSCAASGFTFFRNAMGWYRQAPGKERELVAAISGSGGSTYYADSVKGRFTISRDNAKNTVYLQMNSLKPEDTAVYYCATYSYPAKVREAYNYWGQGTQVTVSS | low polyreactivity
QVQLVESGGALVQAGGSLRLSCAASGFTFNVYAMGWYRPAPGKERELVAAITSSGGSTYYADSVKGRFTISRDNAKNTVYLQMNSLIPDDTAVYYCNVVRDWLLYRGSYIVKFDYWGQGTQVTVSS | high polyreactivity
